Here are results for 20 substances from patent publication US10556944B2, “Fab region-binding peptide” (priority 2013, dated 2020).

Where no end group is shown, it is not given here.

By koff is commonly meant a measure of how fast the partners let go of each other.

For this assay, the target named is T1, anti-TNFα antibody-Fab (IgG-Fab derived from anti-TNFα monoclonal antibody, adalimumab) (Homo sapiens, UniProt P01834+P01857).
T1 construct: cleaving a humanized monoclonal IgG formulation as a starting material into a Fab fragment and an Fc fragment by papain; purchased
The experiment in a line: Biacore 3000 surface plasmon resonance, affinity of SpG-β1 mutants for immobilized IgG-Fab. Format: binding. Conditions: for affinity / binding ability for the IgG-Fab compared with the wild-type (in words): Tables 1 and 3, FIGS. 2 and 3. On the technique in general: In SPR one partner is held on a chip, and binding of the other changes the refractive index at the surface.

The mark [1] stands for this setting: Table 2, Example 3, GST-fused one-domain peptide.
Where [2] appears, read: Table 2, Example 3, GST-fused one-domain peptide, 25° C., pH 7.4.
Where [3] appears, read: Table 2, Example 3, fold of wild-type KA, GST-fused one-domain peptide.
[4] abbreviates: Table 3, Example 4, GST-cleaved type (Pep-), constructs Pep.1d, Pep.1dC, Pep.2dC.
[5] abbreviates: Table 3, Example 4, fold of wild-type KA of the same construct type.

Take “K13T/E19I/K28I/F30L/Y33F/E42Q/D47Y: GST-fused one-domain SpG-β1 mutant, amino acid SEQ ID NO: 59 (TTYKLILNGKTLTGETTTIAVDAATAEIVLKQFANDNGVDGQWTYDYATKTFTVTE; also: GST-fused)”: the KA under setting [1] was found to be 1.45e+06 M⁻¹. Under setting [2], this substance registered a dissociation rate constant (koff) of 0.0063 s⁻¹ and a kon of 91000 s/M. Also, the “KA Vs. Wild” value under setting [3] was 3.9.
In the same order, the values of “K13T/E19I/F30L/Y33F: GST-fused one-domain SpG-β1 mutant, amino acid SEQ ID NO: 47 (TTYKLILNGKTLTGETTTIAVDAATAEKVLKQFANDNGVDGEWTYDDATKTFTVTE; also: GST-fused)” are 1.59e+06 M⁻¹, 0.0067 s⁻¹, 106000 s/M and 4.3.
In the same order, the values of “K13T/E19I/K28I/F30L/N35F: GST-fused one-domain SpG-β1 mutant, amino acid SEQ ID NO: 57 (TTYKLILNGKTLTGETTTIAVDAATAEIVLKQYAFDNGVDGEWTYDDATKTFTVTE; also: GST-fused)” are 1.4e+06 M⁻¹, 0.0063 s⁻¹, 88000 s/M and 3.7.
In the same order, the values of “K13T/E19I/V21D/T25M/F30L/Y33F/N35F/D47A: GST-fused one-domain SpG-β1 mutant, amino acid SEQ ID NO: 55 (TTYKLILNGKTLTGETTTIADDAAMAEKVLKQFAFDNGVDGEWTYDAATKTFTVTE; also: GST-fused)” are 3.47e+06 M⁻¹, 0.003 s⁻¹, 104000 s/M and 9.3.
On to “K13T/E19I/K28N/F30L/Y33F: GST-fused one-domain SpG-β1 mutant, amino acid SEQ ID NO: 53 (TTYKLILNGKTLTGETTTIAVDAATAENVLKQFANDNGVDGEWTYDDATKTFTVTE; also: GST-fused)”, for which the KA under setting [1] worked out at 1.44e+06 M⁻¹. Under setting [2], this substance showed a koff of 0.0061 s⁻¹ and a kon of 88000 s/M. Moreover, the “KA Vs. Wild” value under setting [3] worked out at 3.9.
Take “Pep.1d K10R/K13T/T18A/E19I/V21D/T25M/F30L/Y33F/N35F/D47A: SpG-β1 mutant, SEQ ID NO: 87, GST-cleaved one domain type (TTYKLILNGRTLTGETTAIADDAAMAEKVLKQFAFDNGVDGEWTYDAATKTFTVTE; SpG mutant)”: the “affinity / binding ability for the IgG-Fab compared with the wild-type (in words)” value is “significantly higher affinity for the IgG-Fab than Pep-SpGβ1-Wild.1d”. Moreover, for the setting “Example 4, GST-cleaved one domain type”, the “affinity constant (KA), order of magnitude” value was ~10^7 M^−1. Further, under setting [4], the KA was 1.19e+07 M⁻¹, the koff came out at 0.0117 s⁻¹ and the kon is 138000 s/M. The “KA Vs. Wild” value under setting [5] worked out at 83. Further, where the note is “Table 3, Example 4, fold of wild-type KA of the same construct type, listed as Pep-SpGβ1-K10R/K13T/T18A/E19I/V21D/T25M/F30L/Y33F/N35F/D47A.1d”, the “KA Vs. Wild” value is at least 80.
Consider “K10R/K13T/E15Q/K28R/F30L/D36G/E42V: GST-fused one-domain SpG-β1 mutant, amino acid SEQ ID NO: 69 (TTYKLILNGRTLTGQTTTEAVDAATAERVLKQYANGNGVDGVWTYDDATKTFTVTE; also: GST-fused, end not given here)”, for which the KA under setting [1] was found to be 3.3e+06 M⁻¹. Under setting [2], this substance showed a koff of 0.0035 s⁻¹ and a kon of 115000 s/M. Further, under setting [3], the “KA Vs. Wild” value worked out at 8.8.
For the substance “Pep.1d K13T/E19I/V21D/T25M/F30L/Y33F/N35F/D47A (TTYKLILNGKTLTGETTTIADDAAMAEKVLKQFAFDNGVDGEWTYDAATKTFTVTE)”, the “affinity / binding ability for the IgG-Fab compared with the wild-type (in words)” value is listed as “significantly higher affinity for the IgG-Fab than Pep-SpGβ1-Wild.1d”. Under setting [4], the KA was 4.24e+06 M⁻¹, the koff stood at 0.0257 s⁻¹ and the kon turned out to be 109000 s/M. Moreover, under setting [5], the “KA Vs. Wild” value is recorded as 29. The “KA Vs. Wild” value (Table 3, Example 4, fold of wild-type KA of the same construct type, listed as Pep-SpGβ1-K13T/E19I/V21D/T25M/F30L/Y33F/N35F/D47A.1d) is on record as about 30.
In the case of “Pep.1d K13T/T18A/E19I/V21A/K28I/F30L/Y33F/V39I: SpG-β1 mutant, SEQ ID NO: 85, GST-cleaved one domain type (TTYKLILNGKTLTGETTAIAADAATAEIVLKQFANDNGIDGEWTYDDATKTFTVTE; SpG mutant)”, the “affinity / binding ability for the IgG-Fab compared with the wild-type (in words)” value is given as “significantly higher affinity for the IgG-Fab than Pep-SpGβ1-Wild.1d”. Under setting [4], this substance yielded a KA of 5.34e+06 M⁻¹, a koff of 0.0207 s⁻¹ and a kon of 111000 s/M. Also, under setting [5], the “KA Vs. Wild” value was found to be 37.
“K13T/E19I/A23T/F30L/Y33F/D47N/K50R: GST-fused one-domain SpG-β1 mutant, amino acid SEQ ID NO: 45 (TTYKLILNGKTLTGETTTIAVDTATAEKVLKQFANDNGVDGEWTYDNATRTFTVTE; also: GST-fused)”: the KA under setting [1] worked out at 2.63e+06 M⁻¹. Under setting [2], this substance gave a koff of 0.0046 s⁻¹ and a kon of 120000 s/M. The “KA Vs. Wild” value under setting [3] came out at 7.0.
Under setting [1], “K13S/E19I/F30L: GST-fused one-domain SpG-β1 mutant, amino acid SEQ ID NO: 29 (TTYKLILNGKTLSGETTTIAVDAATAEKVLKQYANDNGVDGEWTYDDATKTFTVTE; also: GST-fused, end not given here)” showed a KA of 2.23e+06 M⁻¹. Besides, the kon under setting [2] came out at 137000 s/M. In addition, under setting [3], the “KA Vs. Wild” value came out at 6.0.
In the same order, the values of “K13T/E19I/E27D/F30L/K31R: GST-fused one-domain SpG-β1 mutant, amino acid SEQ ID NO: 35 (TTYKLILNGKTLTGETTTIAVDAATADKVLRQYANDNGVDGEWTYDDATKTFTVTE; also: GST-fused)” are 2.74e+06 M⁻¹, 150000 s/M and 7.3.
In the same order, the values of “K13T/E19I/K28R/F30L/Y33F: GST-fused one-domain SpG-β1 mutant, amino acid SEQ ID NO: 27 (TTYKLILNGKTLTGETTTIAVDAATAERVLKQFANDNGVDGEWTYDDATKTFTVTE; also: GST-fused)” are 2.02e+06 M⁻¹, 85500 s/M and 5.4.
For “Pep.2dC K10R/K13T/T18A/E19I/V21D/T25M/F30L/Y33F/N35F/D47A: SpG-β1 mutant, SEQ ID NO: 87, GST-cleaved two domain type with Cys at the C-terminus”, under setting [4], the KA was 8.56e+07 M⁻¹, the koff is 0.0014 s⁻¹ and the kon came out at 117000 s/M. Moreover, the “KA Vs. Wild” value under setting [5] came to 253. Also, the “KA Vs. Wild” value (Table 3, Example 4, fold of wild-type KA of the same construct type, listed as Pep-SpGβ1-K10R/K13T/T18A/E19I/V21D/T25M/F30L/Y33F/N35F/D47A.2dC) is reported as at least 200.
On to “K13T/E19I/K28N/E42K: GST-fused one-domain SpG-β1 mutant, amino acid SEQ ID NO: 39 (TTYKLILNGKTLTGETTTIAVDAATAENVFKQYANDNGVDGKWTYDDATKTFTVTE; also: GST-fused)”, for which the KA under setting [1] worked out at 1.1e+06 M⁻¹. Under setting [2], this substance displayed a koff of 0.0124 s⁻¹ and a kon of 137000 s/M. The “KA Vs. Wild” value under setting [3] is on record as 3.0.
In the same order, the values of “K13T/T18A/E19V/F30L/Y33F: GST-fused one-domain SpG-β1 mutant, amino acid SEQ ID NO: 67 (TTYKLILNGKTLTGETTAVAVDAATAEKVLKQFANDNGVDGEWTYDDATKTFTVTE; also: GST-fused)” are 2.85e+06 M⁻¹, 0.0033 s⁻¹, 93600 s/M and 7.6.
In the same order, the values of “K13T/D22N/A23T/T25S/F30L/A48T: GST-fused one-domain SpG-β1 mutant, amino acid SEQ ID NO: 73 (TTYKLILNGKTLTGETTTEAVNTASAEKVLKQYANDNGVDGEWTYDDTTKTFTVTE; also: GST-fused)” are 1.06e+06 M⁻¹, 0.0098 s⁻¹, 104000 s/M and 2.8.
Consider “K13T/E19I/F30L/Y33F/V39I/D47H: GST-fused one-domain SpG-β1 mutant, amino acid SEQ ID NO: 23 (TTYKLILNGKTLTGETTTIAVDAATAEKVLKQFANDNGIDGEWTYDHATKTFTVTE; also: GST-fused)”, for which the KA under setting [1] amounted to 2.06e+06 M⁻¹. Under setting [2], the koff turned out to be 0.0039 s⁻¹ and the kon came to 79400 s/M. Further, under setting [3], the “KA Vs. Wild” value stood at 5.5.
Under setting [4], “Pep.1dC K10R/K13T/T18A/E19I/V21D/T25M/F30L/Y33F/N35F/D47A (TTYKLILNGRTLTGETTAIADDAAMAEKVLKQFAFDNGVDGEWTYDAATKTFTVTE)” showed a KA of 1.56e+07 M⁻¹, a koff of 0.0062 s⁻¹ and a kon of 97700 s/M. Moreover, the “KA Vs. Wild” value under setting [5] turned out to be 88.
“K13T/E19I/Y33F/N35Y/V39L: GST-fused one-domain SpG-β1 mutant, amino acid SEQ ID NO: 41 (TTYKLILNGKTLTGETTTIAVDAATAEKVFKQFAYDNGLDGEWTYDDATKTFTVTE; also: GST-fused)”: the KA under setting [1] came to 1.87e+06 M⁻¹. Also, under setting [2], the koff worked out at 0.0049 s⁻¹ and the kon turned out to be 90500 s/M. The “KA Vs. Wild” value under setting [3] was determined as 5.0.
